This note sets out measurements from publication PMC2946066.

For this experiment, the target named is VHH ALc-B8 expressed as thioredoxin fusion protein (alpaca). Put plainly: SPR. In general terms: SPR reads the build-up and loss of mass on a sensor chip optically.

In general, Kd refers to the concentration at which binding is half-saturated. Higher therefore signals lower affinity. Consider “recombinant BoNT/A protease (light chain), amino acids 1–448 of BoNT/A holotoxin (from UniProt P0DPI1 1-448) (enzyme)”, for which the Kd worked out at 1.06 nM. That is a single-digit nanomolar value.
